{"source": "the supplement of paper PMC10567573", "parents": {"B1": {"name": "KLHL20 (parent)", "chain": "YQDMIYAVGGRDDTTELSSAERYN"}, "B2": {"name": "BTBD1 (parent)", "chain": "YGSIHGPTDYQVNIQIIEYEKKQT"}}}
{"variants_of": "B1", "experiment": "protein stability index of a GFP-peptide fusion (GPS, HEK-293T) (PSI 1-6); higher = more stable", "conditions": "c terminus: a fixed tail appended"}
{"variant": "YQDMIYAVGGRDDTTELSSAEAYN", "note": "[R22A]", "protein stability index": 2.45}
{"variant": "YQDMIYAVGGRDDTTELSCAERYN", "note": "[S19C]", "protein stability index": 2.16}
{"variant": "YQDMIYAVGGRDDTIELSSAERYN", "note": "[T15I]", "protein stability index": 2.09}
{"variant": "YHDMIYAVGGRDDTTELSSAERYN", "note": "[Q2H]", "protein stability index": 2.83}
{"variant": "YQDMIYAVGGRDDTTHLSSAERYN", "note": "[E16H]", "protein stability index": 2.5}
{"variant": "YQDMIYYVGGRDDTTELSSAERYN", "note": "[A7Y]", "protein stability index": 2.27}
{"variant": "YQDMIYAVGGRDDTTELQSAERYN", "note": "[S18Q]", "protein stability index": 2.22}
{"variant": "YQDMIYAVGGRADTTELSSAERYN", "note": "[D12A]", "protein stability index": 2.33}
{"variant": "YQDMIYAVGGRYDTTELSSAERYN", "note": "[D12Y]", "protein stability index": 1.9}
{"variant": "YQDMIYAVGGRDDTTELSSAEDYN", "note": "[R22D]", "protein stability index": 2.49}
{"variant": "YQDMIYAVGGRDDTTEGSSAERYN", "note": "[L17G]", "protein stability index": 2.82}
{"variant": "YQDSIYAVGGRDDTTELSSAERYN", "note": "[M4S]", "protein stability index": 3.27}
{"variant": "YQDMIYAVGGRDDTTELSSAERKN", "note": "[Y23K]", "protein stability index": 2.74}
{"variant": "YQDMIYAVGARDDTTELSSAERYN", "note": "[G10A]", "protein stability index": 1.83}
{"variant": "YQDMIYAVGTRDDTTELSSAERYN", "note": "[G10T]", "protein stability index": 1.82}
{"variant": "YQDMIYAVNGRDDTTELSSAERYN", "note": "[G9N]", "protein stability index": 1.95}
{"variant": "YQDMIYAVGGRIDTTELSSAERYN", "note": "[D12I]", "protein stability index": 1.6}
{"variant": "YQDMIYAVGGCDDTTELSSAERYN", "note": "[R11C]", "protein stability index": 2.69}
{"variant": "YQDMIYAVGGRDDTTELSSAEGYN", "note": "[R22G]", "protein stability index": 2.87}
{"variant": "YQDMIYAVGGRDDTTELVSAERYN", "note": "[S18V]", "protein stability index": 2.32}
{"variant": "YQDMIYAVGGRDDTHELSSAERYN", "note": "[T15H]", "protein stability index": 2.19}
{"variant": "YQDMIYAVGGRDDTTELSSWERYN", "note": "[A20W]", "protein stability index": 1.66}
{"variant": "YQDMIYAVGGRDDTPELSSAERYN", "note": "[T15P]", "protein stability index": 2.17}
{"variant": "YQDMINAVGGRDDTTELSSAERYN", "note": "[Y6N]", "protein stability index": 3.98}
{"variant": "YQDMIYAHGGRDDTTELSSAERYN", "note": "[V8H]", "protein stability index": 2.84}
{"variant": "YADMIYAVGGRDDTTELSSAERYN", "note": "[Q2A]", "protein stability index": 2.3}
{"variant": "YQDMIYAVGGRDDTTVLSSAERYN", "note": "[E16V]", "protein stability index": 2.78}
{"variant": "YQDMIYAVGGRDDTTGLSSAERYN", "note": "[E16G]", "protein stability index": 2.28}
{"variant": "YQDMIYAVGGRDDTTELSSAERYS", "note": "[N24S]", "protein stability index": 2.24}
{"variant": "YQQMIYAVGGRDDTTELSSAERYN", "note": "[D3Q]", "protein stability index": 3.08}
{"variant": "YQDMIYAVGGRDDTTELSSAEREN", "note": "[Y23E]", "protein stability index": 2.77}
{"variant": "YQDYIYAVGGRDDTTELSSAERYN", "note": "[M4Y]", "protein stability index": 2.77}
{"variant": "HQDMIYAVGGRDDTTELSSAERYN", "note": "[Y1H]", "protein stability index": 4.5}
{"variant": "YQDMIYAVGGRDDTTELASAERYN", "note": "[S18A]", "protein stability index": 2.03}
{"variant": "YQDMIHAVGGRDDTTELSSAERYN", "note": "[Y6H]", "protein stability index": 3.27}
{"variant": "YQDAIYAVGGRDDTTELSSAERYN", "note": "[M4A]", "protein stability index": 2.51}
{"variant": "YQDMIWAVGGRDDTTELSSAERYN", "note": "[Y6W]", "protein stability index": 2.51}
{"variant": "YQDMIYAVGGRDDTTESSSAERYN", "note": "[L17S]", "protein stability index": 2.06}
{"variant": "YQDMIYAVQGRDDTTELSSAERYN", "note": "[G9Q]", "protein stability index": 2.27}
{"variant": "YQDMIYAVGGRDDTTELTSAERYN", "note": "[S18T]", "protein stability index": 2.1}
{"variant": "YQCMIYAVGGRDDTTELSSAERYN", "note": "[D3C]", "protein stability index": 2.15}
{"variant": "YQDMLYAVGGRDDTTELSSAERYN", "note": "[I5L]", "protein stability index": 2.61}
{"variant": "YQDMIYAVGLRDDTTELSSAERYN", "note": "[G10L]", "protein stability index": 1.78}
{"variant": "YQDMIYAVGPRDDTTELSSAERYN", "note": "[G10P]", "protein stability index": 2.44}
{"variant": "YQDMIYAVGGRDDCTELSSAERYN", "note": "[T14C]", "protein stability index": 2.47}
{"variant": "YQDMIYAPGGRDDTTELSSAERYN", "note": "[V8P]", "protein stability index": 2.79}
{"variant": "KQDMIYAVGGRDDTTELSSAERYN", "note": "[Y1K]", "protein stability index": 4.39}
{"variant": "YQDMIYAVGGRDDTTELSSVERYN", "note": "[A20V]", "protein stability index": 2.41}
{"variant": "YQDMIYAVGGRDTTTELSSAERYN", "note": "[D13T]", "protein stability index": 2.18}
{"variant": "YQDMIYAVGGRDDATELSSAERYN", "note": "[T14A]", "protein stability index": 1.82}
{"variant": "YQDFIYAVGGRDDTTELSSAERYN", "note": "[M4F]", "protein stability index": 1.84}
{"variant": "YQDNIYAVGGRDDTTELSSAERYN", "note": "[M4N]", "protein stability index": 3.12}
{"variant": "YQDMIYAVGGRDDTTSLSSAERYN", "note": "[E16S]", "protein stability index": 1.91}
{"variant": "YQDMIYAVGGRDDTTEMSSAERYN", "note": "[L17M]", "protein stability index": 2.35}
{"variant": "YQDMIYAVGGRDDTTELSSKERYN", "note": "[A20K]", "protein stability index": 2.03}
{"variant": "YQDMIYEVGGRDDTTELSSAERYN", "note": "[A7E]", "protein stability index": 3.56}
{"variant": "YQDMIYAVGGRDDTTEQSSAERYN", "note": "[L17Q]", "protein stability index": 2.24}
{"variants_of": "B2", "experiment": "protein stability index of a GFP-peptide fusion (GPS, HEK-293T) (PSI 1-6); higher = more stable", "conditions": "c terminus: a fixed tail appended"}
{"variant": "AGSIHGPTDYQVNIQIIEYEKKQT", "note": "[Y1A]", "protein stability index": 3.35}
{"variant": "CGSIHGPTDYQVNIQIIEYEKKQT", "note": "[Y1C]", "protein stability index": 3.4}
{"variant": "DGSIHGPTDYQVNIQIIEYEKKQT", "note": "[Y1D]", "protein stability index": 3.93}
{"variant": "EGSIHGPTDYQVNIQIIEYEKKQT", "note": "[Y1E]", "protein stability index": 3.93}
{"variant": "FGSIHGPTDYQVNIQIIEYEKKQT", "note": "[Y1F]", "protein stability index": 2.52}
{"variant": "GGSIHGPTDYQVNIQIIEYEKKQT", "note": "[Y1G]", "protein stability index": 3.66}
{"variant": "HGSIHGPTDYQVNIQIIEYEKKQT", "note": "[Y1H]", "protein stability index": 3.45}
{"variant": "IGSIHGPTDYQVNIQIIEYEKKQT", "note": "[Y1I]", "protein stability index": 2.92}
{"variant": "KGSIHGPTDYQVNIQIIEYEKKQT", "note": "[Y1K]", "protein stability index": 3.15}
{"variant": "LGSIHGPTDYQVNIQIIEYEKKQT", "note": "[Y1L]", "protein stability index": 2.94}
{"variant": "MGSIHGPTDYQVNIQIIEYEKKQT", "note": "[Y1M]", "protein stability index": 3.73}
{"variant": "NGSIHGPTDYQVNIQIIEYEKKQT", "note": "[Y1N]", "protein stability index": 3.32}
{"variant": "PGSIHGPTDYQVNIQIIEYEKKQT", "note": "[Y1P]", "protein stability index": 3.67}
{"variant": "QGSIHGPTDYQVNIQIIEYEKKQT", "note": "[Y1Q]", "protein stability index": 3.8}
{"variant": "RGSIHGPTDYQVNIQIIEYEKKQT", "note": "[Y1R]", "protein stability index": 3.44}
{"variant": "SGSIHGPTDYQVNIQIIEYEKKQT", "note": "[Y1S]", "protein stability index": 3.79}
{"variant": "TGSIHGPTDYQVNIQIIEYEKKQT", "note": "[Y1T]", "protein stability index": 3.83}
{"variant": "VGSIHGPTDYQVNIQIIEYEKKQT", "note": "[Y1V]", "protein stability index": 3.84}
{"variant": "WGSIHGPTDYQVNIQIIEYEKKQT", "note": "[Y1W]", "protein stability index": 2.67}
{"variant": "YASIHGPTDYQVNIQIIEYEKKQT", "note": "[G2A]", "protein stability index": 1.62}
{"variant": "YCSIHGPTDYQVNIQIIEYEKKQT", "note": "[G2C]", "protein stability index": 2.56}
{"variant": "YDSIHGPTDYQVNIQIIEYEKKQT", "note": "[G2D]", "protein stability index": 3.7}
{"variant": "YESIHGPTDYQVNIQIIEYEKKQT", "note": "[G2E]", "protein stability index": 3.59}
{"variant": "YFSIHGPTDYQVNIQIIEYEKKQT", "note": "[G2F]", "protein stability index": 2.48}
{"variant": "YHSIHGPTDYQVNIQIIEYEKKQT", "note": "[G2H]", "protein stability index": 2.36}
{"variant": "YISIHGPTDYQVNIQIIEYEKKQT", "note": "[G2I]", "protein stability index": 1.7}
{"variant": "YKSIHGPTDYQVNIQIIEYEKKQT", "note": "[G2K]", "protein stability index": 3.06}
{"variant": "YLSIHGPTDYQVNIQIIEYEKKQT", "note": "[G2L]", "protein stability index": 2.08}
{"variant": "YMSIHGPTDYQVNIQIIEYEKKQT", "note": "[G2M]", "protein stability index": 2.83}
{"variant": "YNSIHGPTDYQVNIQIIEYEKKQT", "note": "[G2N]", "protein stability index": 3.28}
{"variant": "YPSIHGPTDYQVNIQIIEYEKKQT", "note": "[G2P]", "protein stability index": 2.81}
{"variant": "YQSIHGPTDYQVNIQIIEYEKKQT", "note": "[G2Q]", "protein stability index": 2.59}
{"variant": "YRSIHGPTDYQVNIQIIEYEKKQT", "note": "[G2R]", "protein stability index": 2.5}
{"variant": "YSSIHGPTDYQVNIQIIEYEKKQT", "note": "[G2S]", "protein stability index": 2.45}
{"variant": "YTSIHGPTDYQVNIQIIEYEKKQT", "note": "[G2T]", "protein stability index": 1.9}
{"variant": "YVSIHGPTDYQVNIQIIEYEKKQT", "note": "[G2V]", "protein stability index": 3.34}
{"variant": "YWSIHGPTDYQVNIQIIEYEKKQT", "note": "[G2W]", "protein stability index": 2.5}
